In patent US20220017622A1 (Pfizer, published 2022):

Target: T1, human B7-H4 on cells (human, UniProt Q7Z7D3 25-282)
T1 sequence (looked up): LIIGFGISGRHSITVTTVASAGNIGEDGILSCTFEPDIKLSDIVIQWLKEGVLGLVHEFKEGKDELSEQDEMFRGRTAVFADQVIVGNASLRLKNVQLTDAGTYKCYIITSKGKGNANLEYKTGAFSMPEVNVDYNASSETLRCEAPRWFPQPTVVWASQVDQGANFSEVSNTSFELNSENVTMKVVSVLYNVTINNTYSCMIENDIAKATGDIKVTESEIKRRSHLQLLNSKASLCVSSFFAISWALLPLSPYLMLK
Test: cell-based or functional assay

B1: B7-H4xCD3 bispecific antibody 0998 (bispecific antibody, IgG2)
heavy 1: EVQLLESGGGLVQPGGSLRLSCAASGFTFSSYAMSWVRQAPGKGLEWVSAISGGGGSTQYADSVKGRFTISRDNSKNTLYLQMNSLRAEDTAVYYCARDIQWFGESTLFDYWGQGTLVTVSSASTKGPSVFPLAPCSRSTSESTAALGCLVKDYFPEPVTVSWNSGALTSGVHTFPAVLQSSGLYSLSSVVTVPSSNFGTQTYTCNVDHKPSNTKVDKTVERKCEVECPECPAPPVAGPSVFLFPPKPKDTLMISRTPEVTCVVVAVSHEDPEVQFNWYVDGVEVHNAKTKPREEQFNSTFRVVSVLTVVHQDWLNGKEYKCKVSNKGLPSSIEKTISKTKGQPREPQVYTLPPSREEMTKNQVSLTCEVKGFYPSDIAVEWESNGQPENNYKTTPPMLDSDGSFFLYSKLTVDKSRWQQGNVFSCSVMHEALHNHYTQKSLSLSPG
light 1: DIQLTQSPSTLSASVGDRVTITCRASQSIRSWLAWFQQKPGKAPKLLIYKASSLEGGVPSRFSGSGSGTEFTLTISSLQPDDFATYYCQQYNSYSRTFGQGTKVEIKRTVAAPSVFIFPPSDEQLKSGTASVVCLLNNFYPREAKVQWKVDNALQSGNSQESVTEQDSKDSTYSLSSTLTLSKADYEKHKVYACEVTHQGLSSPVTKSFNRGEC
heavy 2: EVQLVESGGGLVQPGGSLRLSCAASGFTFSDYYMTWVRQAPGKGLEWVAFIRNQARGYTSDHNPSVKGRFTISRDNAKNSLYLQMNSLRAEDTAVYYCARDRPSYYVLDYWGQGTTVTVSSASTKGPSVFPLAPCSRSTSESTAALGCLVKDYFPEPVTVSWNSGALTSGVHTFPAVLQSSGLYSLSSVVTVPSSNFGTQTYTCNVDHKPSNTKVDKTVERKCRVRCPRCPAPPVAGPSVFLFPPKPKDTLMISRTPEVTCVVVAVSHEDPEVQFNWYVDGVEVHNAKTKPREEQFNSTFRVVSVLTVVHQDWLNGKEYKCKVSNKGLPSSIEKTISKTKGQPREPQVYTLPPSREEMTKNQVSLTCLVKGFYPSDIAVEWESNGQPENNYKTTPPMLDSDGSFFLYSRLTVDKSRWQQGNVFSCSVMHEALHNHYTQKSLSLSPGK
light 2: DIQMTQSPSSLSASVGDRVTITCTSSQSLFNVRSQKNYLAWYQQKPGKAPKLLIYWASTRESGVPSRFSGSGSGTDFTLTISSLQPEDFATYYCKQSYDLFTFGGGTKVEIKRTVAAPSVFIFPPSDEQLKSGTASVVCLLNNFYPREAKVQWKVDNALQSGNSQESVTEQDSKDSTYSLSSTLTLSKADYEKHKVYACEVTHQGLSSPVTKSFNRGEC
T cell mediated tumor cell killing EC50, HCC1954-Luc: 410 nM
